Laboratory results taken from US8343490B2, “Monoclonal antibody SC104 and derivative thereof specifically binding to a sialyltetraosyl carbohydrate as a potential anti-tumor therapeutic agent” (Cephalon Australia Pty Ltd, priority 2004, dated 2013).

What was measured:
C170 cells [1] = assay: FACS antibody saturation on fresh and fixed cells; assay type: binding
Method: FACS on fresh and fixed cells. C170 cells (10^5) either fresh or fixed with 0.5% glutaraldehyde for 1 hr were resuspended in 100 μl of SC104 mab (0-100 μg/ml) and incubated on ice for 1 hr. After washing the samples 3 times in RPMI/10% FCS cells were incubated with FITC labelled rabbit anti-mouse (1/80: Dako Ltd, Bucks, UK) antibody and incubated on ice for 30 minutes prior to analysing by FACS as described above.

[2] = tested on: SC104 antigen purified from sputum; assay: Cross-reaction of antigen purified from sputum with antibodies; assay type: binding; conditions: FIG. 13
Description: • SC104 antigen purification and characterisation. SC104 specific antigen was purified from sputum samples mixed in a 1:1 ratio with 0.1M pH 7.6 Tris 0.5% NP40. Briefly an immuno-affinity was produced cross linking SC104 S136A to Protein A Cl-6B sepharose using Dimethyl pimelimidate.2HCl as the covalent linker Results

[3] = tested on: range of tumour cell lines; assay: Binding to tumour cell lines by ELISA; conditions: SC104 1 μg/ml; FIG. 2a
Method: C170, Colo205, MKN45, R1D9, and 791T cells (10^5) were resuspended in 50 μl of SC104 mab (0-20 μg/ml) and incubated on ice for 20 min. After washing the samples 3 times in RPMI/10% FCS cells were incubated with FITC labelled rabbit anti-mouse (1/50: Dako Ltd, Bucks, UK) antibody and incubated on ice for 30 minutes prior to analysis on a FACScan (Becton Dickinson, Sunnyvale, Calif.). Results are expressed as mean linear fluorescence (MLF). • Binding to tumour cells by ELISA. 96-well tissue culture plates were coated with cells at a cell density of 5×10^5 cells/ml (100 μl/well) in 10% foetal bovine serum in RPMI 1640. The plates were incubated overnight at 37° C., 5% CO2, 95% air. The cells were then washed twice in phosphate buffered saline (pH7.3, PBS) prior to being fixed with 0.5% glutaraldehyde in PBS (10 min, 25° C., 100 μl/well). Remaining non-specific binding sites were blocked by incubation for 1 hr with 1% bovine serum albumin (fraction V from Sigma Chemicals Ltd.) in PBS. The cells were washed three times with a washing solution consisting of 0.05% Tween 20 in phosphate buffered saline. Cells were incubated with SC104 (1 μg/ml) for 1 hr at room temperature and then bound antibody detected with goat anti-mouse horse radish peroxidase and ABTS. Results are expressed as absorbance at 405 nm. Results

colorectal tumours = assay: Binding to colorectal tumours (summary statement)
C170 cells [4] = assay: Inhibition of SC104 cell death by z-FMK-vad caspase inhibitor; assay type: cell-based; conditions: 3 μg/ml SC104 with 3 μM z-FMK-vad inhibitor, overnight; annexin V FITC/PI
Method: SC104 inhibition of cell death using the z-FMK-vad caspase inhibitor. 2×10^5 C170 cells were subjected to 3 μg/ml of SC104 and half were also incubated with 3 μM z-FMK-vad inhibitor (Promega, catalogue number G7232) and incubated overnight. The following day cell viability was assayed using annexin V FITC and propidium iodide.

caspase 6 in C170 cells = assay: Caspase 6 activation (Western blot); assay type: cell-based; conditions: 6 hrs; SC104 at 10, more intensely at 100 μg/ml; FIG. 18
Method: Caspase 6 activation by SC104 mab. 2×10^5 colorectal C170 cells were exposed to 1-100 μg/ml of SC104 for 6 hrs and cell lysates generated. The lysates were subsequently run a 12% SDS-PAGE, Western blotted and probed with a caspase 6 specific antibody (Cleaved caspase 6 antibody, Cell Signalling Technology (NEB), catalogue number 9761). Cells exposed to SC101 were included as a negative control.

SC104 / C14 antigen = assay: ELISA for homophilic binding; conditions: FIG. 23
Method: ELISA for homophilic binding. Flat flexi 96 well ELISA plates were coated with anti-mouse IgG Fc specific antibody or were coated with 3 μg/ml (100 μl/well) of C14 antigen in PBS and dried down overnight. Plates were washed 3 times with PBS prior to blocking with PBS/1% BSA for 1 hr at room temperature. SC104 antibody (0-100 μg/ml) was added on ice for 1 hr. After washing the plate 3 times in PBS/0.05% tween-20, biotinylated SC104 was added and incubated on ice for 30 minutes. Following a further 3 washes in PBS 0.05% tween-20 anti-mouse SA-HRP (1/1000; Dako, High Wycombe, UK) or goat anti-mouse Fc (1/1000: Dako, High Wycombe, UK) was added as appropriate and left on ice for 30 min. Plates were washed 5 times in PBS/0.05% tween-20 before adding 100 μl/well of TMB substrate and reading at 570 nm.

[5] = tested on: colorectal tumour sections; assay: Immunoperoxidase staining of frozen colorectal tumour sections (screening); assay type: binding; design: key: −: negative; +: minimal; 2+: strong; 3+: very strong
Method: ELISA. Antibody responses in the serum of immunised mice were assayed by titration using a standard non-competitive ELISA procedure. 96-well tissue culture plates were coated with C170 cells at a cell density of 5×10^5 cells/ml (100 μl/well) in 10% foetal bovine serum in RPMI 1640. The plates were incubated overnight at 37° C., 5% CO2, 95% air. The cells were then washed twice in phosphate buffered saline (pH7.3, PBS) prior to being fixed with 0.5% glutaraldehyde in PBS (10 min, 25° C., 100 μl/well). Remaining non-specific binding sites were blocked by incubation for 1 hr with 1% bovine serum albumin (fraction V from Sigma Chemicals Ltd.) in PBS. The cells were washed three times with a washing solution consisting of 0.05% Tween 20 in phosphate buffered saline before assaying post-boost serum for binding to C170 cells using a non-competitive sandwich ELISA. The pre-immunisation serum was used as a negative control. • Immunohistochemistry. Binding of hybridoma supernatants to tumour tissues was determined by indirect immunoperoxidase staining of frozen colorectal tumour sections. […] The bound antibody was detected with rabbit anti-mouse Ig conjugated to peroxidase (Dako Ltd., Bucks., UK) and following extensive washing the slides were stained with 0.05% diaminobenzidine and 0.01% H2O2 in 0.05M Tris-HCl, pH7.6 and counterstained with haematoxylin. […]

[6] = tested on: C14 antigen (90 KDa glycoprotein purified from saliva); assay: ELISA on C14 antigen; assay type: binding; conditions: FIG. 4
Method: • Binding to purified antigen preparations. […] Binding of SC104 mab was assayed by ELISA as described above.

B1: SC104: mouse IgG1 monoclonal antibody specific for a sialyltetraosyl carbohydrate, raised by immunisation with colorectal cancer cell lines (antibody, V domains shown)
VH: DVQLQESGPDLVKPSQSLSLTCTVTGYSITSGYSWHWVRQFPGNKMEWMGHIHFSGRPTYNPSLSSRISITRDTSKNQFLLQLKFVTTEDTSTYFCARKGKGSDDGLNYWGQGISVTVSS
VL: ENVLTQSPVIMSASPGEKVTMTCSASSSLSYIHWYQQKSRTSPKLWIYDTSNLASGVPGRFSGSGSGNSYSLTISSMEAEDVATYYCFQGSEYPLTFGGGTKLEMT
C170 cells [1]
  number of SC104 haptens at the surface of C170 tumour cells: approximately 4×10^5 sites per cell
C170 cells [1]; SC104 0-100 μg/ml, FIG. 22
  antigen saturation on fresh and fixed cells: not saturated even at SC104 concentration of 100 μg/ml
[2]
  cross-reaction with antigen purified from sputum: cross-react
[3]
  binding to range of tumour cell lines by ELISA: predominantly bound to cell lines of the gastrointestinal origin
Colorectal tumours
  colorectal tumours bound: 71%
C170 cells [4]
  increase in viable cells in the presence of the inhibitor: 23%
Caspase 6 in C170 cells
  caspase 6 activation: activation of caspase 6
SC104 / C14 antigen; C14 antigen coated plates
  binding to plates coated with purified glycoprotein expressing SC104 haptens: bound stoichiometrically until 10 μg/ml and then bound exponentially beyond this concentration
SC104 / C14 antigen; plate coated with unlabelled SC104, SC104 biotin detected
  homophilic binding in the absence of antigen: did not bind to itself
[5]
  Immunohistochemistry Colorectal Tumour: 3+
[6]
  binding to Lewis ^y/b expressing 90 KDa glycoprotein from saliva by ELISA: bound
